We go through seven molecules from publication PMC4258470 (Journal of molecular biology, 2014).

To fix the notation:
T1: H6GB1-E7(1-98), full length HPV16 E7 fused to His6-GB1, phosphorylated by CKII (HPV16, UniProt P03129 1-98)
T1 sequence: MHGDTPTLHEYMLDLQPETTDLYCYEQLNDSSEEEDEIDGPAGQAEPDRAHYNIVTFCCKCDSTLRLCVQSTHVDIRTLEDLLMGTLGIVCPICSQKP

T2: H6GB1-E7(1-98), full length HPV16 E7 fused to His6-GB1, unphosphorylated (HPV16, UniProt P03129 1-98)
T2 sequence: T1 sequence

T3: E7(1-98), full length HPV16 E7, unphosphorylated, MBP removed (HPV16, UniProt P03129 1-98)
T3 sequence: T1 sequence

B1: H6Rb-AB, His6-tagged central pocket of the retinoblastoma protein (domain or fragment)
chain: HTPVRTVMNTIQQLMMILNSASDQPSENLISYFNNCTVNPKESILKRVKDIGYIFKEKFAKAVGQGCVEIGSQRYKLGVRLYYRVMESMLKSEEERLSIQNFSKLLNDNIFHMSLLACALEVVMATYSRSTSQNLDSGTDLSFPWILNVLNLKAFDFYKVIESFIKAEGNLTREMIKHLERCEHRIMESLAWLSDSPLFDLIKQSKGSGSTSLSLFYKKVYRLAYLRLNTLCERLLSEHPELEHIIWTLFQHTLQNEYELMRDRHLDQIMMCSMYGICKVKNIDLKFKIIVTAYKDLPHAVQETFKRVLIKEEEYDSIIVFYNSVFMQRLKTNILQYAST
B2: E7(1-51) from HPV16, unphosphorylated, tag removed (domain or fragment)
chain: MHGDTPTLHEYMLDLQPETTDLYCYEQLNDSSEEEDEIDGPAGQAEPDRAH
B3: pp6b-E7(1-51), phosphorylated E7(1-51) from low risk HPV6b (domain or fragment)
chain: MHGRHVTLKDIVLDLQPPDPVGLHCYEQLVDSSEDEVDEVDGQDSQPLKQH
modifications: also: phosphorylated by CKII, positions not given here
B4: 6b-E7(1-51), unphosphorylated E7(1-51) from low risk HPV6b (domain or fragment)
chain: B3 chain
B5: ppE7(1-51) C24A,A50C-594, HPV16 E7(1-51) double mutant, phosphorylated and labelled with Alexa Fluor 594 (domain or fragment)
chain: MHGDTPTLHEYMLDLQPETTDLYAYEQLND[pS][pS]EEEDEIDGPAGQAEPDRC(Alexa Fluor 594)H
B6: TAZ2 domain of mouse CBP (residues 1764-1855) (domain or fragment, UniProt P45481 1764-1855, looked up)
chain: SPQESRRLSIQRCIQSLVHACQCRNANCSLPSCQKMKRVVQHTKGCKRKTNGGCPVCKQLIALCCYHAKHCQENKCPVPFCLNIKHKLRQQQ
B7: ppE7(1-51), HPV16 E7(1-51) phosphorylated by casein kinase II at serines 31 and 32 (domain or fragment)
chain: MHGDTPTLHEYMLDLQPETTDLYCYEQLND[pS][pS]EEEDEIDGPAGQAEPDRAH

For test [1], the target named is T1, H6GB1-E7(1-98), full length HPV16 E7 …. Kind of test: pull-down.
The target in test [2] is T2, H6GB1-E7(1-98), full length HPV16 E7 …. As to the kind of experiment: pull-down.
For test [3], the target named is B6. Kind of test: fluorescence polarisation.
Test [4] deals with B6. As to the kind of experiment: fluorescence polarisation. This is another data set of the same source.
Test [5] concerns the target T3, E7(1-98), full length HPV16 E7, …. As to the kind of experiment: NMR titration.
For test [6], the target named is T2, H6GB1-E7(1-98), full length HPV16 E7 …. As to the kind of experiment: pull-down. The source holds these as a separate data set.
Test [7] deals with TAZ1 domain of mouse CBP (residues 345-439) (mouse, UniProt P45481 345-439). As to the kind of experiment: NMR titration.
Chain of TAZ1 domain of mouse CBP (residues 345-439) (P45481 345-439): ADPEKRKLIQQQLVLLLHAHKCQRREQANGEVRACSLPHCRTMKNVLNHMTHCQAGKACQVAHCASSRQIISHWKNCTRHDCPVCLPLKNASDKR
In test [8] the target is B6. As to the kind of experiment: NMR titration.

Where two headings read alike, the source gives them in different places. Where no end group is shown, it is not given here. [ ]: non-standard residue; d: D form. pS = N[C@@H](COP(=O)(O)O)C(=O)O

For B1, the binding result in test [1] and in test [2] was “binds” throughout.
In turn, B2 gave an equilibrium dissociation constant (Kd) in test [3] of 22 ± 6 nM.
Regarding B3, the equilibrium dissociation constant (Kd) in test [3] stood at 31 ± 3 nM.
Take B4: the equilibrium dissociation constant (Kd) in test [3] turned out to be 79 ± 10 nM. This Kd is about 2.5-fold higher than that of the molecule before.
In turn, B5 yielded a Kd in test [4] of 28 ± 6 nM.
Consider B6, for which the binding result in test [5] and in test [6] was “binds” throughout.
Molecule B7 yielded an equilibrium dissociation constant (Kd) in test [3] of 7 ± 3 nM. Also, the Kd in test [7] was 7000 ± 300 nM. In test [8], the “Kd of the primary binding site (Kd1, 2-site model)” value turned out to be 4 ± 3 nM and the “Kd of the secondary binding site (Kd2, 2-site model)” value was 33000 ± 2000 nM.
